This passage reports stoichiometry N results from PMC10932607.

For orientation: stoichiometry N means the number of molecules, sites or subunits per partner or assembly.

The target of experiment [1] is SemiSWEET. The experiment can be described thus: native MS.
The target in experiment [2] is SemiSWEET. The experiment can be described thus: native MS. This is another data set of the same source.

Where two headings read alike, the source gives them in different places.

For SemiSWEET (natural protein), the stoichiometry N in experiment [1] and in experiment [2] was 2 throughout.
